From article PMC7694065

Target: recombinant Hbl B (hemolysin BL component B) with N-terminal strep tag (Bacillus cereus) (UniProt P80172)

recombinant Hbl B (hemolysin BL component B) with N-terminal strep tag (from UniProt P80172 32-375) (natural protein)
binding of rHbl B to Vero cells (flow cytometry, mAb 1G8-Alexa 488) after 10 min heat treatment over a temperature gradient; minimum 7% FL1-positive cells at 60 °C, increase from 70 °C upwards (% FL1-positive cells): 93
